In publication PMC9482650, “Quantitative fragmentomics allow affinity mapping of interactomes” (Nature Communications, 2022):

Experiments:
Experiment in all cases: holdup assay
Set-up in all cases: key: below the threshold = too weak to quantify, mostly under pKd 3.1 to 4
[1] = target: GORASP2, Q9H8Y8
[2] = target: MAGI2_3, Q86UL8
[3] = target: T1, TJP3_3, O95049
T1 sequence (O95049 375-456, limits assumed, looked up): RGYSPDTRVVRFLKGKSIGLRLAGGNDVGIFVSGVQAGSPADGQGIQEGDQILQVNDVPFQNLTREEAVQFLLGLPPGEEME

[4] = target: DLG2_2, Q15700
Sequence of DLG2_2, Q15700 (Q15700 189-283): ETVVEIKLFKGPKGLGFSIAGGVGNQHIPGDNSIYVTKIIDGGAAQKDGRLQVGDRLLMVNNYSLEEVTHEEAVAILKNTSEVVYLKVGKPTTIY

[5] = target: Inadl_8, Q8NI35
Sequence of Inadl_8, Q8NI35 (Q8NI35 1425-1530): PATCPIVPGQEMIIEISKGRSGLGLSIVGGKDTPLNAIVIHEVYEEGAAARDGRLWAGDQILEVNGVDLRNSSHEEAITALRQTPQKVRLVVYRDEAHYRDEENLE

[6] = target: SCRIB_1, Q14160
Sequence of SCRIB_1, Q14160 (Q14160 718-814): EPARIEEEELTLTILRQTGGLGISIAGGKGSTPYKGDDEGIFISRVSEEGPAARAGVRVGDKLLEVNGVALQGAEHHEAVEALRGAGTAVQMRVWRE

[7] = target: T2, DLG3_3, Q92796
T2 sequence (Q92796 374-475, limits assumed, looked up): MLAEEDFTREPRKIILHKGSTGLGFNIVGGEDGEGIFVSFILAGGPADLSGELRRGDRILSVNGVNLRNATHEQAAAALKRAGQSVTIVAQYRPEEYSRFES

[8] = target: FRMPD2_1, Q68DX3
Sequence of FRMPD2_1, Q68DX3 (Q68DX3 770-861): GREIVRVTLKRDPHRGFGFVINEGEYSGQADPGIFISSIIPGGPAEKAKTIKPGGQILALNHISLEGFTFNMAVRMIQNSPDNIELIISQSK

[9] = target: Inadl_2, Q8NI35
Sequence of Inadl_2, Q8NI35 (Q8NI35 238-335): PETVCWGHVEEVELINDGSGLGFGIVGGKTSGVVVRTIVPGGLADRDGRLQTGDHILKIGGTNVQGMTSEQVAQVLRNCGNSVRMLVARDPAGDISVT

[10] = target: T3, HTRA4, P83105
T3 sequence (P83105 378-476, limits assumed, looked up): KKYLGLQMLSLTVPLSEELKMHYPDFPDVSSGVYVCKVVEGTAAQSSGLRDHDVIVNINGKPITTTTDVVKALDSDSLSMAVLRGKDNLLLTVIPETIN

[11] = target: MAST2, Q6P0Q8
Sequence of MAST2, Q6P0Q8 (Q6P0Q8 1099-1202): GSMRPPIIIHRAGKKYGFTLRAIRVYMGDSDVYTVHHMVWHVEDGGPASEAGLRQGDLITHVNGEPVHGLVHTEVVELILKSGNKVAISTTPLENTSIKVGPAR

[12] = target: DLG4_2, P78352
Sequence of DLG4_2, P78352 (P78352 155-259): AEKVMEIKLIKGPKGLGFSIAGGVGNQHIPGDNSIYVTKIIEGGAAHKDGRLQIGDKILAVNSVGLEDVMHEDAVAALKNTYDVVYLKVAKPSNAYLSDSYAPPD

[13] = target: SCRIB_2, Q14160
Sequence of SCRIB_2, Q14160 (Q14160 857-960): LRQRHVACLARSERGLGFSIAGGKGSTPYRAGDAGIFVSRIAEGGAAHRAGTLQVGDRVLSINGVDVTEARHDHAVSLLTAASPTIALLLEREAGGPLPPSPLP

[14] = target: LNX1_3, Q8TBB1
Sequence of LNX1_3, Q8TBB1 (Q8TBB1 500-596): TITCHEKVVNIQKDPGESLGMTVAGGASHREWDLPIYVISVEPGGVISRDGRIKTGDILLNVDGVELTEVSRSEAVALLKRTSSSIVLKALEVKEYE

[15] = target: SNX27, Q96L92
[16] = target: T4, APBA2_1, Q99767
T4 sequence (Q99767 563-664, limits assumed, looked up): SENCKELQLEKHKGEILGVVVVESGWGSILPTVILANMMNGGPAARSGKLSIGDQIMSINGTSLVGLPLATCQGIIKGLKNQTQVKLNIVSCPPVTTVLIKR

[17] = target: T5, DFNB31_3, Q9P202
T5 sequence (Q9P202 811-907, limits assumed, looked up): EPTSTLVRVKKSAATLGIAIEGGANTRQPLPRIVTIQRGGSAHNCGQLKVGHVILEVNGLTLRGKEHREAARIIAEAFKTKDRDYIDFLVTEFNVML

[18] = target: GRIP2_3, Q9C0E4
Sequence of GRIP2_3, Q9C0E4 (Q9C0E4 238-339): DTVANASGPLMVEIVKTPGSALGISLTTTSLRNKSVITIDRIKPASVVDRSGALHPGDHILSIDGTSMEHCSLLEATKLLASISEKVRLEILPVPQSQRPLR

[19] = target: DLG1_3, Q12959
Sequence of DLG1_3, Q12959 (Q12959 457-571): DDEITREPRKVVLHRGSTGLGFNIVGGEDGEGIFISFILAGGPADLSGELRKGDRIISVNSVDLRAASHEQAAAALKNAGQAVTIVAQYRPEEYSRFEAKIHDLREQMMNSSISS

[20] = target: LNX1_1, Q8TBB1
Sequence of LNX1_1, Q8TBB1 (Q8TBB1 261-371): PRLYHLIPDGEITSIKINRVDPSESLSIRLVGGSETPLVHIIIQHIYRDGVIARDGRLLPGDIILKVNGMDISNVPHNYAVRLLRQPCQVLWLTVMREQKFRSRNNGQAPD

[21] = target: LIMK2, P53671
Sequence of LIMK2, P53671 (P53671 143-248): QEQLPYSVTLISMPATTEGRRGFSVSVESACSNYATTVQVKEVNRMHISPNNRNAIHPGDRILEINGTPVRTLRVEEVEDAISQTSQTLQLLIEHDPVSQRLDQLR

[22] = target: DLG4_3, P78352
Sequence of DLG4_3, P78352 (P78352 306-403): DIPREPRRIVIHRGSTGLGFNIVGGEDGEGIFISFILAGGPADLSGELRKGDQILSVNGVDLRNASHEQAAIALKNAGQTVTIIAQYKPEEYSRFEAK

[23] = target: GOPC, Q9HD26
[24] = target: NHERF4_4, Q86UT5
Sequence of NHERF4_4, Q86UT5 (Q86UT5 464-550): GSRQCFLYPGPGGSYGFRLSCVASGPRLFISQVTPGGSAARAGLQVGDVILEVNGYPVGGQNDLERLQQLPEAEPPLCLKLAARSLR

[25] = target: NHERF4_1, Q86UT5-2
Sequence of NHERF4_1, Q86UT5-2 (Q86UT5 other isoform, or with tags, fused parts or gaps): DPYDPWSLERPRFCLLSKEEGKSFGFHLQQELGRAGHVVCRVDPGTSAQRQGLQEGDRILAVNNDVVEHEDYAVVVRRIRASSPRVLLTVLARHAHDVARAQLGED

[26] = target: FRMPD4, Q14CM0
Sequence of FRMPD4, Q14CM0 (Q14CM0 67-160): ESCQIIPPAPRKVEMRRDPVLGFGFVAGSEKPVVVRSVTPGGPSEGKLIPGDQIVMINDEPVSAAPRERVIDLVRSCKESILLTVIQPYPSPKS

[27] = target: T6, GRIP1_7, Q9Y3R0
T6 sequence (Q9Y3R0 999-1096, limits assumed, looked up): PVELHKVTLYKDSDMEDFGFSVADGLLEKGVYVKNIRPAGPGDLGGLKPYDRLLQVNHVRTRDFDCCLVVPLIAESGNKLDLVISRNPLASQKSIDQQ

[28] = target: T7, PDZD2_2, O15018
T7 sequence (O15018 329-429, limits assumed, looked up): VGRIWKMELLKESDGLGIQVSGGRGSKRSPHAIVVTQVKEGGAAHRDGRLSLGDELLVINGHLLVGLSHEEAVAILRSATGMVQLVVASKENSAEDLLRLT

[29] = target: DLG4_1, P78352
Sequence of DLG4_1, P78352 (P78352 62-152): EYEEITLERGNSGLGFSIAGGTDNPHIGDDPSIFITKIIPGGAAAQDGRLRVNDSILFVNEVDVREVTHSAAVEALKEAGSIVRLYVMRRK

[30] = target: T8, NHERF3_1, Q5T2W1
T8 sequence (Q5T2W1 4-100, limits assumed, looked up): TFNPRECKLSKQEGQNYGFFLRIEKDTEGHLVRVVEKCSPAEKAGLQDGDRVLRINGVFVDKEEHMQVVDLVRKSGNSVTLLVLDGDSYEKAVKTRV

[31] = target: MAGI2_5, Q86UL8
Sequence of MAGI2_5, Q86UL8 (Q86UL8 915-1017): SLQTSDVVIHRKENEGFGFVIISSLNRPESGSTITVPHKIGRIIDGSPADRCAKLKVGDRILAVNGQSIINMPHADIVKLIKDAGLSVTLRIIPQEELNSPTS

[32] = plain residues with an end cap or a label only (N-terminal biotin on a linker: ttds)
[33] = plain residues with an end cap or a label only (N-terminal biotin on a linker: ahx)

Sequence of MAGI2_3, Q86UL8 (Q86UL8 600-682): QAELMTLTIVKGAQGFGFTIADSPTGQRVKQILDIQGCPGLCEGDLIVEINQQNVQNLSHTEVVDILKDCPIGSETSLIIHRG

B1: HTLV1-TAX1, P03409 (peptide)
chain: SEKHFRETEV
For B1, the pKd [1, 32] was “below the threshold”, the pKd [2, 32] was 4.3 and the pKd [3, 32] was “below the threshold”. For the same binder, the pKd [4, 32] was 5.21, the pKd [5, 32] was 3.86 and the pKd [6, 32] was 5.63. For the same binder, the pKd [7, 32] was 5.34, the pKd [8, 32] was 3.75 and the pKd [9, 32] was “below the threshold”. For the same binder, the pKd [10, 32] was “below the threshold”, the pKd [11, 32] was 5.42 and the pKd [12, 32] was 5.51. It also gave a pKd [13, 32] of 5.76, a pKd [14, 32] of 3.64 and a pKd [15, 32] of 5.72. For the same binder, the pKd [16, 32] was “below the threshold”, the pKd [17, 32] was “below the threshold” and the pKd [18, 32] was “below the threshold”. The pKd [19, 32] was 5.22, the pKd [20, 32] was 3.89 and the pKd [21, 32] was “below the threshold”. The pKd [22, 32] was 5.34, the pKd [23, 32] was “below the threshold” and the pKd [24, 32] was “below the threshold”. For the same binder, the pKd [25, 32] was “below the threshold”, the pKd [26, 32] was “below the threshold” and the pKd [27, 32] was “below the threshold”. The pKd [28, 32] was 4.44, the pKd [29, 32] was 5.22 and the pKd [30, 32] was 4.71. The pKd [31, 32] was 4.84.

B2: GRIN2B, Q13224 (peptide)
chain: EKLSSIESDV
B2 was tested, and the pKd [1, 33] was “below the threshold”, the pKd [2, 33] was “below the threshold” and the pKd [3, 33] was “below the threshold”. For the same binder, the pKd [4, 33] was “below the threshold”, the pKd [5, 33] was “below the threshold” and the pKd [6, 33] was 3.71. The pKd [7, 33] was “below the threshold”, the pKd [8, 33] was “below the threshold” and the pKd [9, 33] was “below the threshold”. The pKd [10, 33] was “below the threshold”, the pKd [11, 33] was 4.49 and the pKd [12, 33] was 4.86. The pKd [13, 33] was 4.34, the pKd [14, 33] was “below the threshold” and the pKd [15, 33] was 3.87. The pKd [16, 33] was 3.53, the pKd [17, 33] was “below the threshold” and the pKd [18, 33] was “below the threshold”. For the same binder, the pKd [19, 33] was “below the threshold”, the pKd [20, 33] was 4.13 and the pKd [21, 33] was “below the threshold”. The pKd [22, 33] was “below the threshold”, the pKd [23, 33] was 3.63 and the pKd [24, 33] was “below the threshold”. The pKd [25, 33] was 3.53, the pKd [26, 33] was “below the threshold” and the pKd [27, 33] was 3.48. For the same binder, the pKd [28, 33] was 4.82, the pKd [29, 33] was 4.37 and the pKd [30, 33] was “below the threshold”. The pKd [31, 33] was 3.82.

B3: PBK, Q96KB5 (peptide)
chain: HIVEALETDV
With B3 the pKd [1, 32] was “below the threshold”, the pKd [2, 32] was 3.93 and the pKd [3, 32] was “below the threshold”. For the same binder, the pKd [4, 32] was 5.28, the pKd [5, 32] was “below the threshold” and the pKd [6, 32] was 5.32. For the same binder, the pKd [7, 32] was 3.88, the pKd [8, 32] was “below the threshold” and the pKd [9, 32] was “below the threshold”. The pKd [10, 32] was “below the threshold”, the pKd [11, 32] was 5.71 and the pKd [12, 32] was 5.55. The pKd [13, 32] was 5.32, the pKd [14, 32] was “below the threshold” and the pKd [15, 32] was 4.83. For the same binder, the pKd [16, 32] was “below the threshold”, the pKd [17, 32] was “below the threshold” and the pKd [18, 32] was “below the threshold”. The pKd [19, 32] was “below the threshold”, the pKd [20, 32] was 4.51 and the pKd [21, 32] was “below the threshold”. The pKd [22, 32] was “below the threshold”, the pKd [23, 32] was “below the threshold” and the pKd [24, 32] was “below the threshold”. The pKd [25, 32] was “below the threshold”, the pKd [26, 32] was “below the threshold” and the pKd [27, 32] was “below the threshold”. For the same binder, the pKd [28, 32] was 4.84, the pKd [29, 32] was 5.11 and the pKd [30, 32] was “below the threshold”. It also gave a pKd [31, 32] of 3.98.
